# Assay results as given in patent publication US20240075105A1.
# Target: the cell surface receptor (of interleukin-2) on CTLL-2 cells
# Assay: cell-based or functional assay
row,specific bioactivity (CTLL-2 cell/MTT colorimetry) [IU/mg],Substance
1,2.39e+06,"recombinant human interleukin-2/serum albumin fusion protein (rhIL-2/SA, code 9333) (ligand)"
2,2.46e+06,"recombinant human serum albumin/interleukin-2 fusion protein (rHSA/IL-2, code 9222) (ligand)"
